Results from patent US20120100132A1 (INDUSTRIAL TECHNOLOGY RESEARCH INSTITUTE, published 2012).

Biological target: T1, uncleavable form of transmembrane TNF-α (deletion mutant, amino acids +1 through +12 deleted) expressed on … (UniProt P01375 1-233)
T1 construct: whole, on cells; The deletion of +1 to +12 cannot be written as substitutions, so it is described under detail; also called deletion mutant transmembrane TNF-α resistant to TACE-mediated cleavage
Test: flow cytometry saturation binding on transmembrane TNF-α-transfected NS0 cells
Procedure: Transmembrane TNF-α-transfected NS0 cells were incubated with serial log dilutions of m357-IgG (∘) or h357-IgG antibodies for 1 hr at 4° C. The cells were washed and incubated with Alexa Fluor 488 goat anti-mouse IgG (H+L) for m357-IgG and Alexa Fluor 647 goat anti-human IgG (H+L) for h357-IgG, respectively for 1 hr at 4° C. The cell were then washed and analyzed by a FACSCalibur flow cytometer; and
Transmembrane TNF-α transfected NS0 cells were incubated with serial log dilutions of m357 IgG and h357 IgG for 1 hour at 4° C. in phosphate buffered saline (PBS) containing 2% of a fetal bovine serum (fluorescence-activated cell sorting [FACS] buffer). Cells were washed with a FACS buffer 3 times and were then stained with an Alexa Fluor 488 goat anti-mouse IgG (H+L) for m357 IgG and an Alexa Fluor 647 goat anti-human IgG (H+L) for h357 IgG, respectively for 1 hour at 4° C. Fluorescence intensities were measured using a FACSCalibur flow cytometer (Becton Dickinson, San Jose, Calif.).
TNF-α exists as a membrane associated precursor (transmembrane TNF-α) from which a mature soluble form is released by proteolytic cleavage mediated by the TNF-α converting enzyme (TACE). […]

B1: m357 IgG (murine anti-human TNF-α monoclonal antibody from hybridoma 357-104-4, ECACC No. 92030603) (antibody, V domains shown)
VH: VKLQESGGGWVQPGGSMKLSCIASGFTFSNYWMNWVRQSPEKGLEWVAEVRLQSDNFTTHYAESVKGRFTISRDDSKSGVYLQMNNLGAEDTGIYYCTPFAYWGQGTTVTVSS
VL: EIVLTQSPPITSASPGEKVTMTCSASSSVSFMYWYQQKPGSSPRLLIYDASILASGVPVRFSGSGSGTSYSLTISRMEAEDVATYYCQQWSDYSPRTFGGGTKLEIK
notes: Whole murine IgG; also called m35-IgG
  Kd: 12 nM
